Laboratory results reported in paper PMC6213480, “A Novel Cold-Adapted Leucine Dehydrogenase from Antarctic Sea-Ice Bacterium Pseudoalteromonas sp. ANT178” (Marine Drugs, 2018).

What was measured:
Test in all cases: purified protein
Assay type in all cases: biochemical, Pseudoalteromonas sp. ANT178
Settings in all cases: oxidative deamination with NAD+, standard assay 0.1 M glycine-NaOH pH 10.4, 1 mM NAD+, 30 °C
CC(C)C[C@H](N)C(=O)O = test system: CC(C)C[C@H](N)C(=O)O
CSCCC(N)C(=O)O = test system: CSCCC(N)C(=O)O
N=C(N)NCCC[C@H](N)C(=O)O = test system: N=C(N)NCCC[C@H](N)C(=O)O
[1] = test system: N[C@@H](Cc1ccc(O)cc1)C(=O)O

Work on rPsLeuDH (Pseudoalteromonas sp.) yielded a Km (CC(C)C[C@H](N)C(=O)O) of 0.33 mM, a Vmax (CC(C)C[C@H](N)C(=O)O) of 15.2 µmol/min/mg and a kcat (CC(C)C[C@H](N)C(=O)O) of 30.1 s⁻¹. It also gave a kcat/Km (CC(C)C[C@H](N)C(=O)O) of 91300 M⁻¹ s⁻¹, a Km (CSCCC(N)C(=O)O) of 0.75 mM and a Vmax (CSCCC(N)C(=O)O) of 8.38 µmol/min/mg. It also gave a kcat (CSCCC(N)C(=O)O) of 16.6 s⁻¹, a kcat/Km (CSCCC(N)C(=O)O) of 22100 M⁻¹ s⁻¹ and a Km (N=C(N)NCCC[C@H](N)C(=O)O) of 0.84 mM. It also gave a Vmax (N=C(N)NCCC[C@H](N)C(=O)O) of 7.13 µmol/min/mg, a kcat (N=C(N)NCCC[C@H](N)C(=O)O) of 14.1 s⁻¹ and a kcat/Km (N=C(N)NCCC[C@H](N)C(=O)O) of 16800 M⁻¹ s⁻¹. It also gave a Km [1] of 0.48 mM, a Vmax [1] of 13.3 µmol/min/mg and a kcat [1] of 26.4 s⁻¹. It also gave a kcat/Km [1] of 55000 M⁻¹ s⁻¹.
